Assay [1] deals with N15 Cro (Escherichia phage N15) (UniProt P03040). As to conditions: cited from earlier work.
Assay [2] deals with λ Cro (Escherichia phage lambda) (UniProt P03040). The following applies: cited from earlier work.
In assay [3] the target is bacteriophage N15 Cro (bacteriophage N15). Kind of assay: native MS.
Assay [4] has as its target T1, bacteriophage λ Cro (bacteriophage λ), P03040.
T1 chain: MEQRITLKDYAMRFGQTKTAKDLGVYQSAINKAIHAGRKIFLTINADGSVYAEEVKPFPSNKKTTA
The assay is described as follows: native MS. As to conditions: remark: other sources report otherwise.

This passage reports Kd and stoichiometry N results from publication PMC3094495.

Usually Kd stands for the free concentration of one partner at which half of the binding sites on the other are occupied at equilibrium, for simple one-to-one binding. Usually stoichiometry N stands for the number of molecules, sites or subunits per partner or assembly.

As to N15 Cro (from UniProt P03040), the Kd in assay [1] is 5 µM. As for λ Cro (from UniProt P03040), the dissociation constant Kd in assay [2] was 3 µM. As for bacteriophage N15 Cro (natural protein), in assay [3], the stoichiometry N came to 2.

B1: bacteriophage λ Cro, P03040 1-66 (natural protein)
chain: MEQRITLKDYAMRFGQTKTAKDLGVYQSAINKAIHAGRKIFLTINADGSVYAEEVKPFPSNKKTTA
B1 displayed a stoichiometry N in assay [4] of 2.
